# Assay results taken from US20200283521A1 (GRANULAR THERAPEUTICS, published 2020).
# Changes are numbered by the printed parent chain.
# B1: MH13 (antibody, IgG1, V domains shown)
# VH: QVQLVQSGAEVKKPGASVKVSCKASGYTFTDYYMNWVRQAPGQGLEWMGRIYPGSGNTYYAQKFQGRVTMTRDTSTSTVYMELSSLRSEDTAVYYCARGVYYYDYWGQGTLVTVSS
# VL: DIQMTQSPSSLSASVGDRVTITCRASQGVRTNLAWFQQKPGKAPKSLIYAASSLQSGVPSRFSGSGSGTDFTLTISSLQPEDFATYYCQQYNAYPRTFGGGTKVEIK
# notes: IgG1
# B2: MH10 (antibody, IgG1, V domains shown)
# VH: B1 VH
# VL: B1 VL with V29I, A50S, N92T, A93S
# notes: IgG1
# B3: MH12 (antibody, IgG1, V domains shown)
# VH: B1 VH
# VL: B1 VL with A93S
# notes: IgG1
# B4: MH8 (antibody, IgG1, V domains shown)
# VH: B1 VH
# VL: B1 VL with V29I, A50S, N92S, A93S
# notes: IgG1
# B5: MH6 (antibody, IgG1, V domains shown)
# VH: B1 VH
# VL: B1 VL with V29I, A50S, A93S, R96K
# notes: IgG1
# B6: TTP3 (antibody, IgG1, V domains shown)
# VH: B1 VH with Y103L
# VL: B1 VL with A50S, R96K
# notes: IgG1
# B7: TTP6 (antibody, IgG1, V domains shown)
# VH: B1 VH
# VL: B1 VL with R96H
# notes: IgG1
# B8: MH5.32 (antibody, IgG1, V domains shown)
# VH: B1 VH with D31N, S55A, Y101W, Y103F, Y105E
# VL: B1 VL with V29I, N92A, A93N
# notes: IgG1
# B9: MH5.36 (antibody, IgG1, V domains shown)
# VH: B1 VH with D31N, G54A, Y101W, Y103F, Y105E
# VL: B1 VL with V29I, N92A, A93N
# notes: IgG1
# B10: TTP2 (antibody, IgG1, V domains shown)
# VH: B1 VH
# VL: B1 VL with V29I, A93S, R96H
# notes: IgG1
# B11: TTP4 (antibody, IgG1, V domains shown)
# VH: B1 VH
# VL: B1 VL with A50S, R96H
# notes: IgG1
# B12: MH5.2 (antibody, IgG1, V domains shown)
# VH: B1 VH with Y32F, S55T, Y101W
# VL: B1 VL with V29I, N92A, A93N
# notes: IgG1; also called C-KIT-MH5.2
# B13: MH5.35 (antibody, IgG1, V domains shown)
# VH: B1 VH with D31N, G54A, Y101W, Y103F, Y105T
# VL: B1 VL with V29I, N92A, A93N
# notes: IgG1; also called C-KIT-MH5.35
# B14: MH5.23 (antibody, IgG1, V domains shown)
# VH: B1 VH with Y32F, G54A, Y101W, Y103F, Y105S
# VL: B1 VL with V29I, N92A, A93N
# notes: IgG1; also called C-KIT-MH5.23
# B15: MH5.1 (antibody, IgG1, V domains shown)
# VH: B1 VH with D31N, S55T, Y101W
# VL: B1 VL with V29I, N92A, A93N
# notes: IgG1; also called C-KIT-MH5.1
# B16: MH5.24 (antibody, IgG1, V domains shown)
# VH: B1 VH with Y32F, G54A, Y101W, Y103F, Y105T
# VL: B1 VL with V29I, N92A, A93N
# notes: IgG1; also called C-KIT-MH5.24
# B17: MH5.34 (antibody, IgG1, V domains shown)
# VH: B1 VH with D31N, G54A, Y101W, Y103F, Y105S
# VL: B1 VL with V29I, N92A, A93N
# notes: IgG1; also called C-KIT-MH5.34
# B18: MH5.6 (antibody, IgG1, V domains shown)
# VH: B1 VH with Y32H, S55T, Y101W, Y103F, Y105E
# VL: B1 VL with V29I, N92A, A93N
# notes: IgG1
# B19: MH5.4 (antibody, IgG1, V domains shown)
# VH: B1 VH with Y32H, S55T, Y101W, Y103F, Y105S
# VL: B1 VL with V29I, N92A, A93N
# notes: IgG1
# B20: MH5.10 (antibody, IgG1, V domains shown)
# VH: B1 VH with Y32H, S55A, Y101W, Y103F, Y105E
# VL: B1 VL with V29I, N92A, A93N
# notes: IgG1
# B21: MH5.15 (antibody, IgG1, V domains shown)
# VH: B1 VH with Y32F, S55T, Y101W, Y103F, Y105S
# VL: B1 VL with V29I, N92A, A93N
# notes: IgG1
# B22: F-C5 (antibody, IgG1, V domains shown)
# VH: B1 VH with Y103F, Y105E
# VL: B1 VL with L54R, A93S
# notes: IgG1; also called C-KIT-F-C5; F-05
# B23: MH11 (antibody, IgG1, V domains shown)
# VH: B1 VH
# VL: B1 VL with V29I
# notes: IgG1; also called C-KIT-MH11
# B24: C-A7 (antibody, IgG1, V domains shown)
# VH: B1 VH with M48I, Y103F, Y105S
# VL: B1 VL with T31N, L33V, A50Y, A93S
# notes: IgG1; also called C-KIT-C-A7
# B25: E-E10 (antibody, IgG1, V domains shown)
# VH: B1 VH with Y101W, Y103F
# VL: B1 VL with L33V, A50S, A93S
# notes: IgG1; also called C-KIT-E-E10
# B26: C-B12 (antibody, IgG1, V domains shown)
# VH: B1 VH with Y102E, Y103F
# VL: B1 VL with T31N, S53Y, L54R, A93S
# notes: IgG1; also called C-KIT-C-B12
# B27: F-F2 (antibody, IgG1, V domains shown)
# VH: B1 VH with Y103Q
# VL: B1 VL with L33V, L54R, A93S
# notes: IgG1; also called C-KIT-F-F2
# B28: D-A10 (antibody, IgG1, V domains shown)
# VH: B1 VH with Y103F, Y105T
# VL: B1 VL with L54R, A93S
# notes: IgG1; also called C-KIT-D-A10
# Target: T1, human C-KIT-Fc (human, UniProt P10721 26-524)
# T1 construct: also called biotinylated human C-KIT-Fc; not shown: Fc part not described
# Test: HTRF competition on human C-KIT-Fc against terbium-labelled h37M IgG1
row,Binder,binding result
1,B1,binds
2,B2,binds
3,B3,binds
4,B4,binds

# Target: T1, human C-KIT-Fc
# Test: direct ELISA;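 also: Plate-coated C-KIT-Fc (1 µg/ml) probed with antibodies for 1 hr, bound IgG detected via anti-human kappa-HRP and TMB, absorbance measured at 450 nm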
row,Binder,binding result
1,B5,binds
2,B6,binds
3,B7,binds
4,B8,binds
5,B9,binds
6,B10,binds
7,B11,binds

# Target: T2, human C-KIT, full length, on cells (human, UniProt P10721 26-976)
# T2 construct: full-length cDNA stably transfected in CHO-K1; also used here for endogenous C-KIT of TF-1 cells; also called human C-KIT+ CHO-K1 cells; C-KIT on TF-1 cells
# Test: flow cytometry, C-KIT-transfected CHO-K1 cells, IgG1 format
row,Binder,binding result
1,B1,binds
2,B5,binds
3,B6,binds
4,B2,binds
5,B7,binds
6,B3,binds
7,B4,binds
8,B10,binds
9,B11,binds

# Target: T2, human C-KIT, full length, on cells
# Test: as above
# Remark: another data set of the same source
row,Binder,EC50 (read off the curve) [mg/L]
1,B12,~0.2
2,B13,~0.1
3,B14,~0.2
4,B15,~0.2
5,B16,~0.2
6,B17,~0.2

# Target: T1, human C-KIT-Fc
# Test: direct titration ELISA on coated C-KIT-Fc, IgG1 format
row,Binder,binding result
1,B18,binds
2,B19,binds
3,B20,binds
4,B21,binds

# Target: T3, cynomolgus monkey C-KIT, full length, on CHO-K1 cells (cynomolgus monkey)
# T3 construct: whole, on cells; also called cyno C-KIT+ CHO-K1 cells
# Test: flow cytometry, C-KIT-transfected CHO-K1 cells, IgG1 format
row,Binder,EC50 (read off the curve) [mg/L]
1,B12,~0.2
2,B13,~0.2
3,B15,~0.2
4,B16,~0.2
5,B17,~0.2

# Target: T1, human C-KIT-Fc
# Test: HTRF competition vs Tb-h37M IgG1
row,Binder,IC50 [mg/L]
1,B12,0.272
2,B13,2.05
3,B14,2.02
4,B15,0.684
5,B16,2.2
6,B17,0.839

# Target: T4, cynomolgus monkey C-KIT-Fc (cynomolgus monkey)
# T4 construct: also called cyno C-KIT-Fc
# Test: HTRF competition vs Tb-h37M IgG1
row,Binder,IC50 [mg/L]
1,B12,0.254
2,B13,0.785
3,B14,3.26
4,B15,0.633
5,B16,2.74
6,B17,0.532

# Target: T1, human C-KIT-Fc
# Test: HTRF competition vs Tb-h37M IgG1
# Remark: another data set of the same source
row,Binder,IC50 [mg/L]
1,B22,0.031
2,B23,0.051
3,B24,0.037
4,B25,0.031
5,B26,0.066
6,B27,0.046
7,B28,0.027

# Target: T4, cynomolgus monkey C-KIT-Fc
# Test: HTRF competition vs Tb-h37M IgG1
# Remark: another data set of the same source
row,Binder,IC50 [mg/L]
1,B22,0.079
2,B23,0.101
3,B24,0.081
4,B25,0.097
5,B26,0.166
6,B27,0.121
7,B28,0.059
